Data from paper PMC6411343 (International Journal of Oncology, 2019).

B1: [^125I]I-G3-H6 (DARPin G3-H6, directly radioiodinated with iodine-125) (designed binder)
chain: MDLGKKLLEAARAGQDDEVRILMANGADVNAKDEYGLTPLYLATAHGHLEIVEVLLKNGADVNAVDAIGFTPLHLAAFIGHLEIAEVLLKHGADVNAQDKFGKTAFDISIGNGNEDLAEILQKLNGS
modifications: iodine-125 on tyrosines (direct chloramine-T radioiodination, random attachment; number and position not controlled)
B2: [^125I]I-HPEM-G3-GGGC (DARPin G3-GGGC, site-specifically labelled with [^125I]I-iodo-[(4-hydroxyphenyl)ethyl]maleimide) (designed binder)
chain: DLGKKLLEAARAGQDDEVRILMANGADVNAKDEYGLTPLYLATAHGHLEIVEVLLKNGADVNAVDAIGFTPLHLAAFIGHLEIAEVLLKHGADVNAQDKFGKTAFDISIGNGNEDLAEILQKLNGGGGC
modifications: [^125I]I-HPEM ([^125I]iodo-[(4-hydroxyphenyl)ethyl]maleimide) on the C-terminal cysteine (maleimide-cysteine coupling)
B3: [^125I]I-G3-GGGC-IAA (DARPin G3-GGGC, directly radioiodinated, terminal cysteine capped with iodoacetamide) (designed binder)
chain: B2 chain
modifications: iodine-125 by direct iodination; terminal cysteine capped by alkylation with iodoacetamide (IAA)

biological target: human epidermal growth factor receptor 2 (HER2) (human (endogenous in SKOV3, BT474, …, UniProt P04626 23-1255)); test: radioligand binding

KD1 (high affinity interaction, 1:2 interaction model) [pM] | KD2 (low affinity interaction, 1:2 interaction model) [nM] | Binder
163 | 3.9 | B1
99 | 3.5 | B2
146 | 1.5 | B3
